{"source": "patent US20030077318A1", "about": "(Scripps Research, published 2003)", "binders": {"B1": {"name": "soluble H-2K^b (K^bsol), heterodimer of truncated K^b heavy chain and murine β-2 microglobulin, purified empty from Drosophila cells (other)", "alpha": "GPHSLRYFVTAVSRPGLGEPRYMEVGYVDDTEFVRFDSDAENPRYEPRARWMEQEGPEYWERETQKAKGNEQSFRVDLRTLLGYYNQSKGGSHTIQVISGCEVGSDGRLLRGYQQYAYDGCDYIALNEDLKTWTAADMAALITKHKWEQAGEAERLRAYLEGTCVEWLRRYLKNGNATLLRTDSPKAHVTHHSRPEDKVTLRCWALGFYPADITLTWQLNGEELIQDMELVETRPAGDGTFQKWASVVVPLGKEQYYTCHVYHQGLPEPLTLRW", "b2m": "IQKTPQIQVYSRHPPENGKPNILNCYVTQFHPPHIEIQMLKNGKKIPKVEMSDMSFSKDWSFYILAHTEFTPTETDTYACRVKHASMAEPKTVYWDRDM", "notes": "also called H-2K^b Sol; soluble K^b"}}, "biological_target": "T1, VSV-7 (Vesicular stomatitis virus)", "T1 construct": "also called GYVYQGL", "test": "competitive RIA against [^125I]VSV-8 on K^bsol, P30 gel filtration, 23° C.", "data": [{"binder": "B1", "values": [{"measurement": "Kd", "value": 53, "unit": "nM"}]}]}
